Results on two molecules are retold here after patent publication US20240092867A1 (UNIVERSITY OF CHICAGO, published 2024).

B1: vascular endothelial growth factor (VEGF)-A121 (ligand, human, UniProt P15692-9 27-147, looked up)
chain: APMAEGGGQNHHEVVKFMDVYQRSYCHPIETLVDIFQEYPDEIEYIFKPSCVPLMRCGGCCNDEGLECVPTEESNITMQIMRIKPHQGQHIGEMSFLQHNKCECRPKKDRARQEKCDKPRR
notes: mature; Purchased in mature form, not glycosylated

Assay [1] deals with T1, recombinant laminin α3 2928-3150 protein (linker domain and LG4 domain) (human, UniProt Q16787 2928-3150).
T1 construct: range 2928-3150; Made in HEK-293F cells; also called laminin alpha 3 LG domain recombinant protein
T1 sequence: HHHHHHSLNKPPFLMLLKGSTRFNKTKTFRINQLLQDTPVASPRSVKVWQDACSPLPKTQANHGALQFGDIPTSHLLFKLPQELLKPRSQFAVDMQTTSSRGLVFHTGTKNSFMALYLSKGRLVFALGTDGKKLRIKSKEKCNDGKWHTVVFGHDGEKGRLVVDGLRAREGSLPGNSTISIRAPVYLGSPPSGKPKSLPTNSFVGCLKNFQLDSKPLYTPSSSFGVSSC
The assay is described as follows: ELISA, LG domain protein coated. On the procedure:
Affinity of GFs against recombinant laminin LG domains. ELISA plates were coated with 1 μg/mL (A) α3₂₉₂₈₋₃₁₅₀, (B) α4₈₂₆₋₁₈₁₆, or (C) α5₃₀₂₆₋₃₄₈₂ and further incubated with 1 μg/mL of VEGF-A165, VEGF-A121, PlGF-2, PlGF-1, PDGF-BB, or FGF-2 solution. Bound GFs were detected using a specific antibody for each GF (n=4, mean±SEM). Statistical analyses were done using the Mann-Whitney U test by comparing the signals obtained from the laminin domain- and the BSA-coated wells. *p<0.05, **p<0.01. […] A SPR chip was functionalized with the laminin α3₂₉₂₈₋₃₁₅₀ recombinant protein (˜1000 RU), and each GF was flowed over the chip at indicated concentrations. Curves represent the specific responses (in RU) to laminin. Experimental curves were fitted with Langmuir binding kinetics.
ELISA tests were performed as described above. […] 1 μg/mL of BSA served as non-binding protein control. After blocking with 2% BSA PBS-0.05% Tween 20 (PBS-T) solution, 1 μg/mL of the recombinant human proteins (VEGF-A121, VEGF-A165, PlGF-1, PlGF-2, PDGF-BB or FGF-2) or 10 μg/mL of biotinylated heparin (Sigma-Aldrich) were added. Bound GF was detected with biotinylated antibodies for human VEGF, PlGF, PDGF-BB, or FGF-2 (R&D Systems). The antibodies were detected by streptavidin-HRP (R&D Systems).

Assay [2] addresses T2, laminin-511 (human, UniProt O15230 36-3695; P07942 22-1786; P11047 34-1609).
T2 construct: Full-length recombinant human laminin isoform (BioLamina); chains read from the isoform name
Briefly: ELISA, GF coated, laminin 10 nM. For orientation: An ELISA detects its analyte on a solid surface through an enzyme-linked reagent.

In assay [3] the target is T3, laminin-521 (human, UniProt O15230 36-3695; P55268 33-1798; P11047 34-1609).
T3 construct: Full-length recombinant human laminin isoform (BioLamina); chains read from the isoform name
The assay is described as follows: ELISA, GF coated, laminin 10 nM.

Assay [4] concerns the target T4, laminin-421 (human, UniProt Q16363 25-1823; P55268 33-1798; P11047 34-1609).
T4 construct: Full-length recombinant human laminin isoform (BioLamina); chains read from the isoform name
Briefly: ELISA, GF coated, laminin 10 nM.

Assay [5] addresses T5, laminin-332 (human, UniProt Q16787 28-1724; Q13751 18-1172; Q13753 22-1193, limits assumed).
T5 construct: Full-length recombinant human laminin isoform (BioLamina); chains read from the isoform name
The assay is described as follows: ELISA, GF coated, laminin 10 nM.

Assay [6] addresses T6, laminin-111 (human, UniProt P25391 18-3075; P07942 22-1786; P11047 34-1609).
T6 construct: Full-length recombinant human laminin isoform (BioLamina); Chain composition is read from the isoform name
Briefly: ELISA, GF coated, laminin 10 nM.

The target of assay [7] is T7, laminin-211 (human, UniProt P24043 23-3122; P07942 22-1786; P11047 34-1609).
T7 construct: Full-length recombinant human laminin isoform (BioLamina); chains read from the isoform name
Briefly: ELISA, GF coated, laminin 10 nM.

In assay [8] the target is T8, laminin-411 (human, UniProt Q16363 25-1823; P07942 22-1786; P11047 34-1609).
T8 construct: Full-length recombinant human laminin isoform (BioLamina); chains read from the isoform name
Briefly: ELISA, GF coated, laminin 10 nM.

Assay [9] addresses T9, recombinant human vWF A2 domain (human, UniProt P04275 1498-1665).
T9 construct: domain: A2
Briefly: ELISA; peptides and vWF forms coated at 50 nM, VEGF-A in solution, detected with anti-VEGF-A antibody [panel D]. On the procedure: (§1) (A) Diagram of exon sequence of VEGF-A showing inclusion (+) or exclusion (−) of heparin binding domain exons for the different VEGF-A isoforms. […] Bound VEGF-A was detected using a specific antibody for VEGF-A (n=4, mean±SD). Statistical comparisons were done using ANOVA with Tukey's test compared with BSA control. **p<0.01.
(§2) ELISA was performed as previously reported1. […] After blocking with 2% BSA solution containing PBS-T, 1 μg/mL of recombinant human VEGF-A121 (PeproTech), recombinant human VEGF-A145 (R & D Systems), or recombinant human VEGF-A165 (PeproTech) was added. Bound VEGF-A was detected with 1 μg/mL of mouse anti-human VEGF-A antibody (clone: 26503, R & D systems). After 60 min of incubation, horseradish peroxidase (HRP) conjugated goat anti-mouse antibody (1:2000 dilution, Dako) was added and incubated for another 60 min. Color development and the absorbance measurement were done as described above.

Assay [10] concerns the target T10, recombinant human vWF A3 domain (human, UniProt P04275 1683-1874).
T10 construct: domain: A3
The description is as above. How it is done: as §1, §2

In assay [11] the target is T11, pro-peptide containing recombinant vWF (UniProt P04275 23-2813).
T11 construct: also called immature, pro-peptide-containing recombinant vWF
Described as above. On the procedure:
as §1, §2

The target in assay [12] is T12, human plasma-derived vWF (human, UniProt P04275 764-2813).
T12 construct: mature; also called plasma-derived purified vWF; von Willebrand factor
The assay is described as follows: ELISA, GF coated 50 nM, vWF 1 µg/mL.

Assay [13] concerns the target T13, recombinant human vWF A1 domain (human, UniProt P04275 1261-1468, limits assumed).
T13 construct: domain: A1; also called vWF A1 recombinant protein; recombinant A1 domain
Briefly: ELISA; recombinant vWF A1 domain coated (10 µg/mL, legend paragraph 67), GF in solution, detected with anti-VEGF-A antibody [panel B]. How it is done: FIGS. 18A-C. […] Bound GFs were detected using a specific antibody for each GF (n=4, mean±SD). Statistical analyses were done using ANOVA with Tukey's test or Student's t-test. *p<0.05, **p<0.01.
ELISA tests were performed as described above. […] After blocking with 2% BSA solution containing PBS-T, 1 μg/mL of the recombinant human proteins VEGF-A121, VEGF-A165, PlGF-1, PlGF-2, PDGF-BB, FGF-2, CXCL-12α and CXCL-12γ were added. 1 μg/mL of BSA served as non-binding protein control. Bound GF or chemokine was detected with biotinylated antibodies for human VEGF-A, PlGF, PDGF-BB, FGF-2, or CXCL-12 (R & D Systems). The antibodies were detected by streptavidin-HRP (R & D Systems). Color development and the absorbance measurement were done as described above.

In assay [14] the target is B1. The assay is described as follows: ELISA; peptides and vWF forms coated at 50 nM, VEGF-A in solution, detected with anti-VEGF-A antibody [panel D]. How it is done:
as §1, §2

Assay [15] deals with T14, vascular endothelial growth factor (VEGF)-A165 (human, UniProt P15692-4 27-191).
T14 construct: mature; Purchased in mature form, not glycosylated
Briefly: ELISA; peptides and vWF forms coated at 50 nM, VEGF-A in solution, detected with anti-VEGF-A antibody [panel B]. How it is done: as §1, §2

In assay [16] the target is T15, recombinant human VEGF-A145 (human, UniProt P15692-6 27-171).
T15 sequence (looked up): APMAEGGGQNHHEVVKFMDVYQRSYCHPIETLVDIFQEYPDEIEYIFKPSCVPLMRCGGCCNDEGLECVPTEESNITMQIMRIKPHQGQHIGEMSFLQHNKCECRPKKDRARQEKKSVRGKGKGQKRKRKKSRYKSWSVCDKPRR
The assay is described as follows: ELISA; peptides and vWF forms coated at 50 nM, VEGF-A in solution, detected with anti-VEGF-A antibody [panel C]. On the procedure:
as §1, §2

T5 sequence (Q16787 other isoform, or with tags, fused parts or gaps limits assumed, chain 1 of 3): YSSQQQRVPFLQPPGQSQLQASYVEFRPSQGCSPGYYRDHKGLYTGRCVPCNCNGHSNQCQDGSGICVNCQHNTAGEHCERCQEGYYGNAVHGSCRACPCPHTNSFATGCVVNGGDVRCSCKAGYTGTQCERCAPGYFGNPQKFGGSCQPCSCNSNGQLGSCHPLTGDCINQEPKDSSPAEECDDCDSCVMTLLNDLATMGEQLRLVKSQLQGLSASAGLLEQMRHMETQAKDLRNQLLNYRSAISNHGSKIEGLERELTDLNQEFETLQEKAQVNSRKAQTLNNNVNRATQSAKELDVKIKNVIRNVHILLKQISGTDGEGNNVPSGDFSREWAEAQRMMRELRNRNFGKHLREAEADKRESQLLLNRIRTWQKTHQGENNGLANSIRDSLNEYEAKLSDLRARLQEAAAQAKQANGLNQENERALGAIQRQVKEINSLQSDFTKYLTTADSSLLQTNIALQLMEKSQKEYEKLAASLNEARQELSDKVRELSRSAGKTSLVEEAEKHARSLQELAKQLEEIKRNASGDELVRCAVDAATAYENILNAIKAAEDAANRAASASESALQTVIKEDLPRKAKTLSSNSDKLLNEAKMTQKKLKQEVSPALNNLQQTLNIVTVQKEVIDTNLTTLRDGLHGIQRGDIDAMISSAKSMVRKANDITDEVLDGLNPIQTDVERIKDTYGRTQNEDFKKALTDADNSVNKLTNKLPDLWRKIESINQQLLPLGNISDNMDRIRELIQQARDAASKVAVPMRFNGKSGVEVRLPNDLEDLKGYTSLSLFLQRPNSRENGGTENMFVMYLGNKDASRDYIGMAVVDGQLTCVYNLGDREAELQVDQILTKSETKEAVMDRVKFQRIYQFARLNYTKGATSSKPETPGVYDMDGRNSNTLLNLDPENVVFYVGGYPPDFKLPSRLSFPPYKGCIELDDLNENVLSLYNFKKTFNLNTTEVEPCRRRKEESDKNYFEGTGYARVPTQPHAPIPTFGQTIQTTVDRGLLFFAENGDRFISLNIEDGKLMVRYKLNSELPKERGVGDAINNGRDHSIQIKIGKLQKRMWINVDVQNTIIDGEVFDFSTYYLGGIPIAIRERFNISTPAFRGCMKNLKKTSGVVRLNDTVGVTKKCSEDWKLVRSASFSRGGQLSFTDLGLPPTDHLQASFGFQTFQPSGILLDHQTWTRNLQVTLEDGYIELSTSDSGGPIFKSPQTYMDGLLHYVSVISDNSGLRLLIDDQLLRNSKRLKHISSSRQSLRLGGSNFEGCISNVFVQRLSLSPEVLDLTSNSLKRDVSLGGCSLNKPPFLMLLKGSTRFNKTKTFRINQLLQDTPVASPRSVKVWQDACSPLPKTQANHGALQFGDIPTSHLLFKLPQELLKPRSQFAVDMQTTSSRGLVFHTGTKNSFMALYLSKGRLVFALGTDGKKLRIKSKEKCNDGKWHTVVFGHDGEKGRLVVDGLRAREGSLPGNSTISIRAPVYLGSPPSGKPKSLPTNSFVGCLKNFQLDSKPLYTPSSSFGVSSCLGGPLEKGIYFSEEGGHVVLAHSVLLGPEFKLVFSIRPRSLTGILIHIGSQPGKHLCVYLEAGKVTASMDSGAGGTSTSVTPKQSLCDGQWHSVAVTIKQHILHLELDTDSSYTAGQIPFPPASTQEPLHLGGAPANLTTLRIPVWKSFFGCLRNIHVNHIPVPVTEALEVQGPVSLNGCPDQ
T5 sequence (Q13751 18-1172 limits assumed, chain 2 of 3): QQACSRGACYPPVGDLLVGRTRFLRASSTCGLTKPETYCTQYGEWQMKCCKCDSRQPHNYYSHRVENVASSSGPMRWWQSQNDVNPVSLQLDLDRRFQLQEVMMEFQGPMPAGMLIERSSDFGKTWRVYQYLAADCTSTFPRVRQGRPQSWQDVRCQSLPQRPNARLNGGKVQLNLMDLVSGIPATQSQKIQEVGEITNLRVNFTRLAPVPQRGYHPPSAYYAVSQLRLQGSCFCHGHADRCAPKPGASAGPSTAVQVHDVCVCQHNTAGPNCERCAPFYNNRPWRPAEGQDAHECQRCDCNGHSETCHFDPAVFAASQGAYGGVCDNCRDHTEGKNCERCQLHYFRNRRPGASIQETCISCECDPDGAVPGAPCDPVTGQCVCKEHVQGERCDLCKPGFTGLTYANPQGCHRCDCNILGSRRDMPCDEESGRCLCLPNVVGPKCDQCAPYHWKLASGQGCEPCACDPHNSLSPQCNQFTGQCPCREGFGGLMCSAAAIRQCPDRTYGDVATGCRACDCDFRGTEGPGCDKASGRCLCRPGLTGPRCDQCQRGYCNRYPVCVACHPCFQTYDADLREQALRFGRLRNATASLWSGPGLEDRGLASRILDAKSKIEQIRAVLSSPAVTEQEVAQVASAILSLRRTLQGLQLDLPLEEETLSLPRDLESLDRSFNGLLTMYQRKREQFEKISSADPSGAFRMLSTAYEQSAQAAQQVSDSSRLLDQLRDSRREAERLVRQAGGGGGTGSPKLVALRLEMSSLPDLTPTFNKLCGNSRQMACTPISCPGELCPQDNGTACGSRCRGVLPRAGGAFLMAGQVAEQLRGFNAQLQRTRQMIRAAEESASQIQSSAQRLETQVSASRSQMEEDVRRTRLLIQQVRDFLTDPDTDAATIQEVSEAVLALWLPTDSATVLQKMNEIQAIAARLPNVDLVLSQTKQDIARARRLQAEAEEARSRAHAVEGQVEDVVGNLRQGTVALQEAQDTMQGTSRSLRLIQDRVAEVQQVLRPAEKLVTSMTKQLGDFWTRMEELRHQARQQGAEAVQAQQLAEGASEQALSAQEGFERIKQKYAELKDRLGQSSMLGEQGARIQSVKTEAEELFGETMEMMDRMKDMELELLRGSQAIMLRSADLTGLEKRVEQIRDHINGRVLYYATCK
T5 sequence (Q13753 22-1193 limits assumed, chain 3 of 3): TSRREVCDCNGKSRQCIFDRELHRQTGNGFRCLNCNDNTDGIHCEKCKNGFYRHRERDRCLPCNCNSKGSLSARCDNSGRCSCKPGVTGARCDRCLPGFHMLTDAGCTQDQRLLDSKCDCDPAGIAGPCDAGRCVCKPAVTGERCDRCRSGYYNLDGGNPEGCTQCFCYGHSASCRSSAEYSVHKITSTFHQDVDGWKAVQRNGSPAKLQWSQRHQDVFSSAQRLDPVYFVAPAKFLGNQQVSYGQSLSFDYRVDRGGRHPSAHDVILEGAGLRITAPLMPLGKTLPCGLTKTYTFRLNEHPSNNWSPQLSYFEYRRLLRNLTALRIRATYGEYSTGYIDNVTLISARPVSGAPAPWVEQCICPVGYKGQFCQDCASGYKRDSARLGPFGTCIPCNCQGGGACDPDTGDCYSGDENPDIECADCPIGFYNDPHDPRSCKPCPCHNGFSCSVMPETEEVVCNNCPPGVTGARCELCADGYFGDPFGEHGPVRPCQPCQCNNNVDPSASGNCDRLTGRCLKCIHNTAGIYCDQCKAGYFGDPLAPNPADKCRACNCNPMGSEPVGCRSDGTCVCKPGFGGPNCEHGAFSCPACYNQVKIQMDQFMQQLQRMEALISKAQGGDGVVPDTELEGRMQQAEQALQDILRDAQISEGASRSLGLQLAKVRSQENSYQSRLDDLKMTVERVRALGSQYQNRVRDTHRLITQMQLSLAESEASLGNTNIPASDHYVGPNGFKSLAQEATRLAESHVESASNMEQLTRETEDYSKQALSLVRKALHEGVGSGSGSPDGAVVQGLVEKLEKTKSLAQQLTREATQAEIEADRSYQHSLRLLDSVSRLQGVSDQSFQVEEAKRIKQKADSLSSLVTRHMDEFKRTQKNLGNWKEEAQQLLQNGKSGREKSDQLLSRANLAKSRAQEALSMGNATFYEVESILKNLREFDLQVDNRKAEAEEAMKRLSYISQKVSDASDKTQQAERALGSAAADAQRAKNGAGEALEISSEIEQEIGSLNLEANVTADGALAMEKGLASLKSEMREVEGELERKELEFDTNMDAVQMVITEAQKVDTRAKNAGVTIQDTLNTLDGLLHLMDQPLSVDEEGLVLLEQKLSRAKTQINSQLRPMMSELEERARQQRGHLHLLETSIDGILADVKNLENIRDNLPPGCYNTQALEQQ

On to B1, for which the binding result is listed as “no binding (tested: 1 µg/mL)” in [1]; “no binding (tested: A450 0.1)” in [2]; “no binding (tested: A450 0.1)” in [3]; “no binding (tested: A450 0.1)” in assay [4]; “no binding (tested: A450 0.1)” in assay [5]; “no binding (tested: A450 0.1)” in assay [6]. Also, the binding result in [7] is “no binding (tested: A450 0.1)”; in [8], “no binding (tested: A450 0.1)”; in [9], “no binding (tested: 1 µg/mL VEGF-A121 (single concentration))”; in [10], “no binding (tested: 1 µg/mL VEGF-A121 (single concentration))”; in [11], “no binding (tested: 1 µg/mL VEGF-A121 (single concentration))”; in assay [12], “no binding”. For the same molecule, the binding result in [13] is on record as “no binding (tested: 1 µg/mL VEGF-A121 (single concentration))”.

B2: Arg substituted HBD (peptide)
peptide: YIGLKDSKSPSELSSIASQVKYAC
notes: not in the list MOLECULES; also called vWF A1 HBD with Arg substituted by Ser; mutated HBD peptide
For the molecule B2, the figures for the binding result in assay [14], in assay [15] and in [16] were “no binding (tested: 1 µg/mL VEGF-A121 (single concentration))”, “no binding (tested: 1 µg/mL VEGF-A165 (single concentration))” and “no binding (tested: 1 µg/mL VEGF-A145 (single concentration))”, respectively.
